# Measurements taken from US20040054149.
# B1: truncated aggrecanase-2 from amino acid #1 through amino acid #567 (protein)
# chain: SISRARQVELLLVADASMARLYGRGLQHYLLTLASIANRLYSHASIENHIRLAVVKVVVLGDKDKSLEVSKNAATTLKNFCKWQHQHNQLGDDHEEHYDAAILFTREDLCGHHSCDTLGMADVGTICSPERSCAVIEDDGLHAAFTVAHEIGHLLGLSHDDSKFCEETFGSTEDKRLMSSILTSIDASKPWSKCTSATITEFLDDGHGNCLLDLPRKQILGPEELPGQTYDATQQCNLTFGPEYSVCPGMDVCARLWCAVVRQGQMVCLTKKLPAVEGTPCGKGRICLQGKCVDKTKKKYYSTSSH
# B2: ADAMTS-5 active site mutant (E411-Q411) (protein)
# chain: SISRARQVELLLVADASMARLYGRGLQHYLLTLASIANRLYSHASIENHIRLAVVKVVVLGDKDKSLEVSKNAATTLKNFCKWQHQHNQLGDDHEEHYDAAILFTREDLCGHHSCDTLGMADVGTICSPERSCAVIEDDGLHAAFTVAHQIGHLLGLSHDDSKFCEETFGSTEDKRLMSSILTSIDASKPWSKCTSATITEFLDDGHGNCLLDLPRKQILGPEELPGQTYDATQQCNLTFGPEYSVCPGMDVCARLWCAVVRQGQMVCLTKKLPAVEGTPCGKGRICLQGKCVDKTKKKYYSTSSHGNWGSWGSWGQCSRSCGGGVQFAYRHCNNPAPRNNGRYCTGKRAIYRSCSLMPCPPNGKSFRHEQCEAKNGYQSDAKGVKTFVEWVPKYAGVLPADVCKLTCRAKGTGYYVVFSPKVTDGTECRPYSNSVCVRGKCVRTGCDGIIGSKLQYDKCGVCGGDNSSCTKIVGTFNKKSKGYTDVVRIPEGATHIKVRQFKAKDQTRFTAYLALKKKNGEYLINGKYMISTSETIIDINGTVMNYSGWSHRDDFLHGMGYSATKEILIVQILATDPTKPLDVRYSFFVPKKSTPKVNSVTSHGSNKVGSHTSQPQWVTGPWLACSRTCDTGWHTRTVQCQDGNRKLAKGCPLSQRPSAFKQCLLKKC
# B3: truncated aggrecanase-2 from amino acid #1 through amino acid #628 (protein)
# chain: SISRARQVELLLVADASMARLYGRGLQHYLLTLASIANRLYSHASIENHIRLAVVKVVVLGDKDKSLEVSKNAATTLKNFCKWQHQHNQLGDDHEEHYDAAILFTREDLCGHHSCDTLGMADVGTICSPERSCAVIEDDGLHAAFTVAHEIGHLLGLSHDDSKFCEETFGSTEDKRLMSSILTSIDASKPWSKCTSATITEFLDDGHGNCLLDLPRKQILGPEELPGQTYDATQQCNLTFGPEYSVCPGMDVCARLWCAVVRQGQMVCLTKKLPAVEGTPCGKGRICLQGKCVDKTKKKYYSTSSHGNWGSWGSWGQCSRSCGGGVQFAYRHCNNPAPRNNGRYCTGKRAIYRSCSLMPCPPNGKSF
# Biological target: chondroitinase-treated bovine aggrecan, P13608
# Sequence (P13608 17-2364): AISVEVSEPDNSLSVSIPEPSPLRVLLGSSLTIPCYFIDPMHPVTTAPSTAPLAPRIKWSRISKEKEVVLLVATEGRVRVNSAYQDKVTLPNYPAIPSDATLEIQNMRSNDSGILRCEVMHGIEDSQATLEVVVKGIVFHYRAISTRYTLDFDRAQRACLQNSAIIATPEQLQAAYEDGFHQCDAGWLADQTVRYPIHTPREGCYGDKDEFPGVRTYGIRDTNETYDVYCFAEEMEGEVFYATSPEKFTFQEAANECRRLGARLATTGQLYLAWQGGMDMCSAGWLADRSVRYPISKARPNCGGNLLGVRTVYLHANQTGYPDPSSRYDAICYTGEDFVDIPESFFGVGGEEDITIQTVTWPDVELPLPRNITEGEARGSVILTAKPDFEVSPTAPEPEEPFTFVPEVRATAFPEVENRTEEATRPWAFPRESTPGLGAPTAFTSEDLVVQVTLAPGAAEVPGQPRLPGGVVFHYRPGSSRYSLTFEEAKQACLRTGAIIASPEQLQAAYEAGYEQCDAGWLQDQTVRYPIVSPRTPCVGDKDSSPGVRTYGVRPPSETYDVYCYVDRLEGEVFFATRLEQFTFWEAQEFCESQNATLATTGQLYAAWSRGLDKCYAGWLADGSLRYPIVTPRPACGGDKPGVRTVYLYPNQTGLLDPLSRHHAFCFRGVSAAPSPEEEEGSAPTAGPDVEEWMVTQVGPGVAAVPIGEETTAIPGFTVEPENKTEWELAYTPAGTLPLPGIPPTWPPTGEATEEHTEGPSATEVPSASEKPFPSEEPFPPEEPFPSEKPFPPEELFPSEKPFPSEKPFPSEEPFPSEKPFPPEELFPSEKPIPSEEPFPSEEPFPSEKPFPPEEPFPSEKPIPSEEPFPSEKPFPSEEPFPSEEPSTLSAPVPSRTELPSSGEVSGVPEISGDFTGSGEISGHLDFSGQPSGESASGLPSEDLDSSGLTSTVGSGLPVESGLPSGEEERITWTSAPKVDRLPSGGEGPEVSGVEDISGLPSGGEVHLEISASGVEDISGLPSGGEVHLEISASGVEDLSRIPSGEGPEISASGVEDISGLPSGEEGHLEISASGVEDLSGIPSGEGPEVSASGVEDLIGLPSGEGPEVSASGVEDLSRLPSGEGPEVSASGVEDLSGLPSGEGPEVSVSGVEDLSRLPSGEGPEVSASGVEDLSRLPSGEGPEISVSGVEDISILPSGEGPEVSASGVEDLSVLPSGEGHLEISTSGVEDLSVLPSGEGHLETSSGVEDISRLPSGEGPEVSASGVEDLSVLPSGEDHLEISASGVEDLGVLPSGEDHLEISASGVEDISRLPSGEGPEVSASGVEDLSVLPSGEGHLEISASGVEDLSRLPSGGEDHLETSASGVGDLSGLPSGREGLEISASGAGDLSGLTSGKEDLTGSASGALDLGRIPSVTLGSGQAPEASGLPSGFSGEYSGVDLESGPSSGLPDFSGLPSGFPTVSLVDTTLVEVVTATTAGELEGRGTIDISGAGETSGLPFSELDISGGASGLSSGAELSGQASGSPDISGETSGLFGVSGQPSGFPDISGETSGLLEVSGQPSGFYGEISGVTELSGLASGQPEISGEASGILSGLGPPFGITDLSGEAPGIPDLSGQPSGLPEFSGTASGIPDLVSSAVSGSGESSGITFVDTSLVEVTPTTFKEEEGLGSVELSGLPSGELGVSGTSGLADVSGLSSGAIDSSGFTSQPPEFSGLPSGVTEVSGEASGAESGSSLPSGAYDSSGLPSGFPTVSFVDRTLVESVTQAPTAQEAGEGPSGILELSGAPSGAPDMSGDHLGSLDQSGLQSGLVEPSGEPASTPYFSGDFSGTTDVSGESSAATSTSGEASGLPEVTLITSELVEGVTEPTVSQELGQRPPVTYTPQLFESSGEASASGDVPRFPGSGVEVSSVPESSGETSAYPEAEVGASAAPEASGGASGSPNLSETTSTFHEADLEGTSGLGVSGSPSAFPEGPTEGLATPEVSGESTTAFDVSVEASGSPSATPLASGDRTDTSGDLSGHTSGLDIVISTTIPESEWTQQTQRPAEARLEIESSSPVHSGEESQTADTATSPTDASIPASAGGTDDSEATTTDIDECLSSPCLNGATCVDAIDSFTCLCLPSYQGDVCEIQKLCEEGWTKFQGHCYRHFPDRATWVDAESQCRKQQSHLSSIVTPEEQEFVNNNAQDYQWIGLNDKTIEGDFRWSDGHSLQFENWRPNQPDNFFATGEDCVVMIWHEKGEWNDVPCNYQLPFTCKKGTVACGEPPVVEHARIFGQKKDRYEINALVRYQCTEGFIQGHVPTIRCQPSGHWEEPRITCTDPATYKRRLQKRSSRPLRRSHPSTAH
Protein,% aggrecan cleavage (3B3 ELISA assay),aggrecanase activity (ELISA)
B1,truncated aggrecanases of the invention having one or both TSP domains deleted are biologically active,–
B2,–,lacked aggrecanase activity as shown by ELISA (FIG. 16)
B3,truncated aggrecanases of the invention having one or both TSP domains deleted are biologically active,–
